Source: patent US20250320281A1

Key:
Experiment in all cases: cell-based or functional assay
[1] = target: HIV-1 Env of isolate MGRM-G-027 (HIV-1)
[2] = target: HIV-1 Env of isolate MG RM-D-022 (HIV-1)
[3] = target: HIV-1 Env of isolate MGRM-C-028 (HIV-1)
[4] = target: HIV-1 Env of isolate 92UG024 (clade D), on pseudovirus (HIV-1)
[5] = target: HIV-1 Env of isolate SF162 (subtype B pseudovirus) (HIV-1) (UniProt P19550)
[6] = target: HIV-1 MGRM-C-027 Env (pseudovirus, clade C) (HIV-1)
[7] = target: HIV-1 Env of isolate MGRM-AE-004 (HIV-1)
[8] = target: HIV-1 MGRM-C-028 Env (pseudovirus, clade C) (HIV-1)
[9] = target: HIV-1 Env of isolate MGRM-Chronic-B-017 (subtype B pseudovirus) (HIV-1)
[10] = target: aMLV envelope, on pseudovirus (negative control virus)
[11] = target: HIV-1 Env of isolate MGRM-AE-005 (HIV-1)
[12] = target: HIV-1 Env of isolate MGRM-F1-006 (pseudovirus) (HIV-1)
[13] = target: HIV-1 Env of isolate MGRM-D-022 (pseudovirus) (HIV-1)
[14] = target: HIV-1 Env of isolate 92UG114 (pseudovirus) (HIV-1)
[15] = target: HIV-1 Env of isolate MGRM-D-016 (pseudovirus) (HIV-1)
[16] = target: HIV-1 Env of isolate MGRM-Chronic-B-001 (subtype B pseudovirus) (HIV-1)
[17] = target: HIV-1 Env of isolate 92UG024 (pseudovirus) (HIV-1)
[18] = target: HIV-1 IAVI-C22 envelope glycoprotein (Env) on pseudovirus (HIV-1)
[19] = target: HIV-1 92BR020 envelope glycoprotein (Env) on pseudovirus (HIV-1)
[20] = target: HIV-1 envelope glycoprotein (Env) of isolate MGRM-A-006, clade A (HIV-1)
[21] = target: HIV-1 Env of pseudovirus MGRM-Chronic-B-012 (HIV-1)
[22] = target: HIV-1 Env of isolate TRJ0.58 (Acute), clade B, on pseudovirus (HIV-1)
[23] = target: HIV-1 IAVI-C18 envelope glycoprotein (Env) on pseudovirus (HIV-1)
[24] = target: HIV-1 Env of isolate 98IN022 (clade C) (HIV-1 isolate 98IN022)
[25] = target: HIV-1 Env of pseudovirus MGRM-G-016 (HIV-1, clade G isolate MGRM-G-016)
[26] = target: HIV-1 93UG077 envelope glycoprotein (Env) on pseudovirus (HIV-1)
[27] = target: aMLV envelope protein on pseudovirus
[28] = target: HIV-1 envelope glycoprotein (Env) of isolate MGRM-A-005, clade A (HIV-1)
[29] = target: HIV-1 IAVI-C3 envelope glycoprotein (Env) on pseudovirus (HIV-1)
[30] = target: HIV-1 APV-6 envelope glycoprotein (Env) on pseudovirus (HIV-1)
[31] = target: HIV-1 Env of pseudovirus MGRM-Chronic-B-024 (HIV-1)

Chain of 4995_E20 (PGT-142) (antibody) (VH): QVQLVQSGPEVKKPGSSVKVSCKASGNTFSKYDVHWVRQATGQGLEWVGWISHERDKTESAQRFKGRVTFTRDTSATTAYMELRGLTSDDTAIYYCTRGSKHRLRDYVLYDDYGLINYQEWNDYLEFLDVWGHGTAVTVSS
Chain of 4995_E20 (PGT-142) (antibody) (VL): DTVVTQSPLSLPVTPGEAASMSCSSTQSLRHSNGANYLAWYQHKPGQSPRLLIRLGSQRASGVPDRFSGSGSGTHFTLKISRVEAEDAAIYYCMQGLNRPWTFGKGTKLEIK
Chain of 4980_N08 (PGT-143) (antibody) (VH): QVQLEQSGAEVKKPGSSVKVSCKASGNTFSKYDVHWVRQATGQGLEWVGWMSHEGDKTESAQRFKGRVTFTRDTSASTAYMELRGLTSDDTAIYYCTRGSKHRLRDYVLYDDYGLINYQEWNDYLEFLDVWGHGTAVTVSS
Chain of 4980_N08 (PGT-143) (antibody) (VL): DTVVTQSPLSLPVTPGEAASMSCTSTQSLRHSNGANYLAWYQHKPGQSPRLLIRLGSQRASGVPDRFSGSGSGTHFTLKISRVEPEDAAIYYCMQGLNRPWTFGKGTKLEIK
Chain of 4970_K22 (PGT-144) (antibody) (VH): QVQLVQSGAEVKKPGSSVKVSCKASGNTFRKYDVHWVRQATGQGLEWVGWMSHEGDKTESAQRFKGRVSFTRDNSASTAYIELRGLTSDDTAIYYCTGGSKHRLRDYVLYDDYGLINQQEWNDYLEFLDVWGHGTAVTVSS
Chain of 4970_K22 (PGT-144) (antibody) (VL): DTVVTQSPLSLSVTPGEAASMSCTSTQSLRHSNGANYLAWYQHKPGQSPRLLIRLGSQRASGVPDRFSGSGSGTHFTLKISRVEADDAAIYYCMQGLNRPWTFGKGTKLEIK

Row | Substance | IC50 (µg/mL), pseudovirus neutralization [1] [µg/mL] | IC50, pseudovirus neutralization [18] [µg/mL] | IC50 (µg/ml), pseudovirus neutralization [21] [µg/mL] | IC50 (µg/ml), pseudovirus neutralization [22] [µg/mL] | IC50, pseudovirus neutralization [23] [µg/mL] | IC50 (µg/ml), pseudovirus neutralization [24] [µg/mL] | IC50 (µg/ml), pseudovirus neutralization [25] [µg/mL] | IC50, pseudovirus neutralization [29] [µg/mL] | IC50, pseudovirus neutralization [30] [µg/mL] | IC50 (µg/ml), pseudovirus neutralization [31] [µg/mL] | other results
1 | 4980_N08 (PGT-143) (antibody) | > 50 |  |  |  |  |  |  |  |  |  | 
2 | 4995_E20 (PGT-142) (antibody) | > 50 |  |  |  |  |  |  |  |  |  | 
3 | VRC01 (antibody) | 0.36 |  |  |  |  |  |  |  |  |  | IC50 [2]: > 50 µg/mL; IC50 (µg/mL), pseudovirus neutralization [3]: 0.319 µg/mL
4 | PGV04 (antibody) | 0.125 |  |  |  |  |  |  |  |  |  | IC50 (µg/mL), pseudovirus neutralization [4]: 0.201 µg/mL
5 | 4877_D15 (PGT-122) (antibody) |  |  |  |  |  |  |  |  |  |  | IC50 (µg/mL), pseudovirus neutralization [5]: 0.009 µg/mL; IC50 neutralization [6]: 0.0388 µg/mL; IC50 [7]: > 50 µg/mL; IC50 neutralization [8]: 2.06 µg/mL; IC50 (µg/mL), pseudovirus neutralization [9]: 5.66 µg/mL; IC50, pseudovirus neutralization [10]: > 10 µg/mL; IC50 [11]: > 50 µg/mL; IC50, pseudovirus neutralization [12]: 3.27 µg/mL; IC50, pseudovirus neutralization [4]: > 10 µg/mL; neutralization IC50 [3]: 2.22 µg/mL; IC50, pseudovirus neutralization [13]: > 50 µg/mL; IC50, pseudovirus neutralization [14]: 0.011 µg/mL; IC50, pseudovirus neutralization [15]: > 50 µg/mL; IC50 (µg/mL), pseudovirus neutralization [16]: 0.138 µg/mL; IC50, pseudovirus neutralization [17]: > 50 µg/mL
6 | b12 (antibody) |  | 3.6 | > 50 | > 50 | > 50 | 0.42 | > 50 | 5 | > 25 | > 50 | IC50, pseudovirus neutralization [19]: 27.5 µg/mL; IC50 (µg/ml), pseudovirus neutralization [20]: 13.6 µg/mL; IC50, pseudovirus neutralization [26]: 41.1 µg/mL; IC50, pseudovirus neutralization [27]: > 50 µg/mL; IC50 (µg/ml), pseudovirus neutralization [28]: 3.64 µg/mL
7 | 1495_C14 (PGC14) (antibody) |  | 9.5 | > 50 | > 50 | > 50 | 9 | > 50 | > 50 | 7.41 | > 50 | IC50, pseudovirus neutralization [19]: 0.637 µg/mL; IC50 (µg/ml), pseudovirus neutralization [20]: > 50 µg/mL; IC50, pseudovirus neutralization [26]: > 50 µg/mL; IC50, pseudovirus neutralization [27]: > 50 µg/mL; IC50 (µg/ml), pseudovirus neutralization [28]: > 50 µg/mL
8 | 4970_K22 (PGT-144) (antibody) | > 50 |  |  |  |  |  |  |  |  |  | 
9 | 1496_C09 (PG9) (TCN-109) (antibody) | 0.007 | 24.9 | 0.91 | 0.43 | 0.0535 | 0.006 | 0.4 | 12.9 | 0.0869 | 0.18 | IC50 neutralization [6]: 2.45 µg/mL; IC50 neutralization [8]: 0.121 µg/mL; IC50 (µg/mL), pseudovirus neutralization [4]: 1.86 µg/mL; IC50, pseudovirus neutralization [4]: 1.91 µg/mL
